# Source: article PMC6476982, “The CXXC Motifs Are Essential for the Function of BosR in Borrelia burgdorferi” (Frontiers in Cellular and Infection Microbiology, 2019)
# B1: recombinant BosR with a C-terminal Strep-II tag (WT rBosR-StrepII) (natural protein)
# chain: MNDNIIDVHSALEKVGITNDPVLLKNLTSELGMKASHSRNRIILYIASNPKEYFTAKEVYNKLIKEIPSLSKATVYNTLNILKERNILKDIKTTDQKETKFYLSLASTIAHFKCNKCNQVHPIQLDDIKDILKDKLGENWETKSIEIIYSGHCNNCYKKDTHNNNNVPDENKEITL
# notes: BosR (Fur family member), Borrelia burgdorferi strain 297, ORF bb0647; bosR amplified with primers from the ATG start codon to the last codon before the stop, fused directly to the Strep-II tag; theoretical MW of rBosR-StrepII 21.25 kDa; also called pOY436; source: E. coli M15 (pREP4), purified (Strep-Tactin resin, Superdex 200 FPLC)
# Molecular target: the molecule itself
# Test: SEC; HiLoad 16/60 Superdex 200 prep grade column on an Äkta FPLC in buffer A (20 mM Hepes, 300 mM NaCl, 100 mM L-arginine, 1 mM TCEP, pH 7.0); molecular weight from a calibration curve of gel filtration standards; self-association, dimer or monomer
protein,measurement,value
B1,stoichiometry N,2
